Assay: soluble fraction after stress (log2 fold change); higher = more stays soluble; pooled small domains, quantitative proteomics
Conditions: stress: 50 degC
Outline: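 Each library was heated to 50°C as a stress step. The libraries, made up of small protein domains, were pooled and analysed at high throughput by quantitative proteomics. The reported value is the base-two logarithm of the fold change in each protein's soluble amount after stress, taken as a measure of aggregation propensity. The higher the value, the more protein stays in solution.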

Sequence	soluble fraction (log2)
HMRAMWENLFFQYKEGFLPEEYYKQGIATGIRLAGPKFVEMNIPMQKEFEDEVHRLLAEHEKSVK	-0.748
HMVNVLKNSTVIDLVKNNLSDALIISLIRRAKVDFSLMTDDVIELSGKGVSPAVIMEMRQAMIRQASEIQN	-0.145
HMSLLTIDELSQATGVSVRTLRYYVSSGVLDKPTGETRNARYGTHHLDQVRNIKKLQEEGLTLNRILEIKK	-1.65
HMKRSFGYIRLLPSKRYQASYIGPDSQRHAAPETFTRKMDAEGWLSAERRLIEWDQWTSPEQRAAQARLD	-0.591
HMQISGIHLYERRITKDDEWAERKLSEISLAGSLVILILRNEHVVIPNGETVLKENDLLYISD	-2.93
HMTDFESYTVRVTATNLNIRKGAGTNFHSAGYIKPGVYTIVEEADGKGATRWGKLKSGMGWISLDYAKK	-0.763
HMPVTAQFDFSKVLAGRTLKDGEFSFVLKDKNGTVLQTKTNDASGKVAFDALIYKNNEVGEHKYTVEEVI	0.208
HMDLMKKTLTKEMLLIDFMKQQFPDSSTNKLRKMLSSGRVKINNLITHKAKSQLKLGDIFELANKPHD	-0.826
HMNADAIVGRTGVVTEAIAADGFGRVQIDGDSWKAKASGNNGIDVGAKVRVLRIDSIILTVEK	0.0422
HMNKLSISALAETVSTKRKEKSMTQQDLSDATGINRALISRLEQKDFIPSIPQLEKLEEILGFELEEVF	-0.0428
HMKETIIPELLQNELDKNSELNDKFNTFSPYKQREFIEYIITAKQEKTQISRLQKVILMILEGRGLNN	-0.204
HMQKDYKTRLQEYYAKVGKKVNYMDSSTGPDHDKKFQTQVFLDKEIIGVGEGKSKKSSQQEAAKQALEKI	0.338
HMTIHVMEIKSLLPIKILDESQHLVQSFSSKNPTSYNYRLIFSDKSKLENIKKTINENKDVESIEIRYA	-0.816
HMSGIQNNFITRLKKVLAPTIGIAEEISDLLNISIDSAYRRIRGETDFTFEEIYIITRKHKISIDEIYG	-3.58
HMTAFSEQLIKLRKQKGLSQEQLGAAVGVTRQTVSKWELGDTTPELGKLVQLSDYFQLSIDELVGH	-0.0666
HMSDKPRYYINGNTLFISDKSVKKVLFSDLSGRSILHTTETAINIATFRGAHILTVIYTDGSTKSEVIF	-1.29
HMRWGDPLTVKVPSFIGQTKDDIAKQHYPFRIEWHGEGAKIGSQLPEVDSVIKQDGTIHLYLV	-0.104
HMQKLSPKQRRGNIIELIKENPTITAKNISTIFNLNQRTIERDLAKLTEEGYIKYEGSSKDGKWVFL	0.087
HMAMDYTVVHSDRRTIAIQIQRDGRVVVRAPYAATAEDIRRVVDSHRDWVEKTVRRQQEQLAAS	-0.0261
HMLMYAQDEKEEASNNIPYRLLHMSFTKEQKAELQRAMDVRVPKDIILSYFYPDTPVARMMEIRRQYESA	-0.472
HMASVLTAKLSEREVDVLNLLARGFTNADIAAQLHLSEGTVRNHVSTIFAKLDVNDRTQAAVIAIRHGL	-0.775
HMIGVIVDEVDPDSSLKSGDIITEVNREVILNIDDFVGLVEQIQKTGRSSLLLKILRDKKSLWVTIQFV	0.0885
HMKPGWEDIFRMNQIQLEDAVRTVNRDDTLAPTKKAYLIQNLLASRWIVGNQLQAQKDKTTE	-0.0813
HMELLTNPLTGREVEVLTLMALGQTNHEIARQLYLATGTVKAHTSSIYRKLDVANRTEAVARARQLGIL	-1.1
HMKDIIVDPQGQYNHPGVPTRIPSSDITMKGVGYPVLGIADNGQKQMMQPGQDYKFPGAKYVDEYPQM	0.137

Sequence	soluble fraction (log2)
HMETGKLIKELRLKKGMTQEELADKTEVSSRTIQRIENGEVDPRAYTLQMIARALEVDYSLFME	0.0531
HMKEYPEVITTSRLNVRTGPGTGYQRLGTLDQNLRVLVLTRQQGWAQIRGMLNGETVIGWVNDYYLQAID	-0.319
HMNEMIFNQKKIGQFFMNPETNSPMIYPLELGHKMKIIELKNGWYNVTDEKTGLNGWVKEEDFGVTKPLDS	-0.205
HMQVRVERSRDKVVISGVNYYIHPVRKGETVYSIARAYGITTQDLVRENPSAAEGLKEGQSIRIPERLVD	0.0927
HMRSFGTLRRLPSGRYQASYAGPDLRRHAAPTTFETKLDAEGWLRDEHRMIERDEWTAPAARSQLK	0.214
HMSFGWETLEGKEGVTDTDLHPSGWVKVGDEKIFVVSQGEFLGKGTDIVVVSVDGNRVVVKELI	-0.694
HMGDPYAILGLLPGASMEDVRHAWRRQAAENHPDRMLQRGAPPEFVEIAREKTAAINAAYARIREELSI	-0.303
HMSTADGGYPSIVINDGRVIDTNLQKLGLDRSWLSAELKRQGKGSEKDIFLMTVNQRREVYISVKEA	-0.27
HMPVGSIGERLKALRLKAGLTQEEVGQHVHISKQTLYKYENGIVTNIPADKIELLATIYSVTPAYIMGWA	-0.875
HMEMTEDEITKQFDAMEREAKKEIDTGADKRAFMYGVSRTAAGMAGKNPKYARFITDKAKEVIENIAKYK	0.108
HMFKLPRTIGTFEDSDVVIGAGKFGPYIMHNKKFVSLPKSEDPLTIGLERAIELISAKREQEKQRH	0.284
HMVQDDLRELEGISTELLAKLADAGITNRDDLADLAIDELVAITGQSEDDAKALIMKAREHWFAGDA	-0.0273
HMGNYRVIKWGMQGDDVKLMQQMLINRGYVLSATGKYASRTLKAIMAFQEANGLKADGIVGKRTWNKLL	-2.66
HMSIESPEEFNAKFPPGSEIYATNIQKNAIVQSPANAKGDVEILANSMRLTINFRFISKRDT	0.0469
HMGQVPPLTRRETEIARLVSRGLSNKEIASTLVISPRTAEGHVEHILDKLGFSSRTQIATWLNEQTRNGK	-0.0938
HMKPTVKGHFTRKESNVGGYADVRGWGVAGTPSMMANQSKDTRRFSTLIVPGRSVNVHPSPTKEAIIWWQS	-0.0091
HMGLLEMPSERERQVLVLIAEGLSNKEIAARLYLTEGTVKNHAHSLYAKLNVTTRTLAIARARQLGI	-1.54
HMSLSKQETEFLTTFSASGKRVFTYQQATDYWQSKVAATNVLGRLVRKGWLQRLERGLYMIIPLEAGPERF	-0.853
HMLSLSDIINDVMERLTREKNLTFDELLGEKRERRRIVYTFLALLELIRLKMIKAYQTAAFGVIRIFPR	-0.898
HMLAEEAFNKQAATAGYVYRDGSYHPAASVAQYDAMPRNYRTNTMAQELSRSQVESQLQQSQ	0.436
HMIVSEYIIIGGDKKEYGPVSMGEVGEWVQGGRANGDSKIKKVGTEEWGRLRDFPEFSAYLS	-0.00369
HMDKPIVFLEDTKAHKSSDLQSPVYMTVPKGTIAFVIAEKGDWSQVYAGRVLDRNLASQWVRRGFS	0.227
HMAQLPADLSKVKSSQISDQQLTQIAQQAKNSGQSEQAVLQELKQRGLPDTEIQALGARISGLMQ	0.137
HMSHISLGQRYKIEGYLQINLKRTQIAKEIGLPKKTVNQEIKRNSNPQTGIYKAEEAHQLYLDRMQKKRK	-0.131
HMDGVTEYTVKSGDSFSAIINKHYNVNYDEKLMQAVAAYNNIEDMNKLQLGQIIKLPPKEQLNL	0.0199

Sequence	soluble fraction (log2)
HMPNDYRKKLEILAKEKGAEYLHTMLTEVDPKSALQIHTNNIKRTIRALEFYHQTGMKISEHNEAEREK	0.0272
HMRIHKQLGDRIRNLRLSSGMNQEELAFKSGISAAHLGQIERGLKSPTISTIQKIAKALNVTLPILF	-0.298
HMAEVALFVNGSDVNLRSGPGQESTRVIGSLNLGDEVRIKSQNGQWREVYVPKTRQVGWVAHWLLSEAPP	0.192
HMAVFRVGDKVKSMEGMIGEVRGINGRLIQVATPYGLRDYYPHQITKVENPLAAAPAPLNEEA	0.269
HMNTSITVPSLKGLSQEAATLKMERLGLHVEVSDTGFVRSLAFGTVLQQSIAPGEKVKPGRLVYITINSD	-1.96
HMLVTQSITVPMAMSGIRLDAALAMLFPDHSRNRLKAWLDDGHILVDGAVWAGKQRLEGNEEITATLPEAK	-0.207
HMLLFSVADIVKRSKRILSFKTDAELAAYFGVSRSTLSNWIARNSIDFPLLLSKMKDVDYTWLILGKGTPG	-3.97
HMKEGGREEMSEIVERYGDERALMANITSVQNLMNNMKWTLDQALDALGIKGKERTLITQQLQ	-0.147
HMELNESVLKALYEKFREMSGSKGFITEDEVIIQLEKENPDITPDQQAEIFKYLYDTPLQIY	-0.127
HMDEFQLTPREQEILGLLVKGYTYKRIASELNLSYATVNRHVSNVYVKLRVHSVNEAVALAVRKGL	-0.997
HMVSLSENQKIVLESLNTAMSARELMEILNLSDISHFRRNILNPLLLEGLIVRTKPDKPKSSKQKYIKANF	-1.15
HMDGQPQLLIKNGQLLVSTALKNGMSANDLMFRLRTEGITDIRYVKRAVLEQNGQLTITQVGDD	-0.105
HMEKNILPDTSPEKQYEFATSFLKVGDYSTAERAFREFVINNSEHKLAGNAQYWYAETFRIRQ	-0.101
HMKVSVPDIMDNSSLRQAEAKLRALGFRVTEPEYISGEKDWVYSVTYKGRTLNAGDKVPHEALLTLHVGNG	-0.0697
HMAQTTKWREIHKVKRKETIFGIARDNGLTVDELIEANPEMTKPGYELKKGDFIYIPFPSKNIDTNAGTQT	-0.157
HMRKMELTEAAEKLIEEPDVVSAYRNMQQIFQQWREIGPVPREQRDEVWSHFKDLMTQVNRRHQAHFEN	-0.0451
HMQLPTNAAAILRYLSSGAVKGVGSATAVRIVEKFGEETLNILEQDPLRLAEIRGISRDKAKKIGEDFASQ	-0.201
HMENYTYKYATSANVNIREEPNTDSTILGKTLLNTEFQVVEDVDGWSKITTEAGYAYIKSEYLSDTE	-0.188
HMNVAVSEADAKAAALERVSGATEADIRMELELDDGYYVYEGDIIYQQKEYEFEIDAQTGKFLKWSEER	-0.14
HMGDPVRVDKFLHDMNVGTRSQIRKLIKEKAVFVNDVVAKSGRVKVDPVVDQVRLGEQVITYQ	-0.115
HMIGHIGSAVMLNAKLRPRLPLLHVLALTQSLGERLSAAEAQPEVYRWSDPGQSRVIAEFEGGRLTRWRLE	-2.09
HMQTFGTMIAALRKEQGMTQLELAEKMGVTDKAVSKWERDLSFPDVNSLPKLAEIFHVSVDEL	-0.229
HMLDEKAVRQYLLNTLENSEIKMDRQAIDLFLRLTDLDLSKMMRELQKILLYGQEQEVITVKEIEQ	-0.856
HMELRSPMPGLIIEIPVSKGDIIKKDQSLIILEAMKMENVLTSPINGKIADIKVNVQDTVEKNNLLITFEN	-0.164
HMTAYEGLPVTLIIDGRVFQQNLQKMNLSVEWLRLELKKFGVTNLKEVLFASLDTEGKLFYQLKT	0.0485
